According to the Human Domainome abundance scans (Beltran et al. 2025):

B1: Transcription factor SOX-11, residues 50 to 117; numbered along this chain, P35716 (parent)
chain: KRPMNAFMVWSKIERRKIMEQSPDMHNAEISKRLGKRWKMLKDSEKIPFIREAERLRLKHMADYPDYK

Variants of: B1
Assay: abundance fitness (aPCA) (normalised: wild type 0, dead -1); higher = more abundant; growth selection in yeast, the domain comes from the species named
Details: Homo sapiens

Abundance fitness of substitutions, site by site:
F49: H -0.739; G -0.739; S -0.566; E -0.792; M -0.301; V -0.635; T -0.558; I -0.694; R -0.767; N -0.881; W -0.256; A -0.761; Y 0.048; L -0.731
G35: A 0.152; T 0.262; H 0.266; E 0.519; K 0.484; S 0.315; D 0.25; M 0.17; C 0.129; P -0.234; Q 0.212; V 0.25; Y 0.126; I 0.173; L 0.162; R 0.142; W -0.207
K42: V -0.431; Y -0.525; W -0.706; A -0.058; H -0.235; R -0.278; C -0.424; E -0.387; I -0.526; G -0.221; M -0.161; F -0.673; D -0.263; N 0.051; L -0.315; P 0.021
R51: L -0.125; K -0.054; A -0.069; P -0.473; M 0.141; G -0.606; T -0.29; D -0.129; F -0.411; Y -0.238; I -0.104; V -0.075; S -0.495; H -0.289; Q 0.189; C -0.304
S44: I 0.005; N -0.29; Q 0.585; R -0.24; G -0.208; M -0.362; H -0.053; P -0.752; K -0.492; E 0.274; F -0.132; Y -0.024; T -0.215; D 0.169; C -0.089; W -0.037
P48: L -0.572; I -0.43; W -0.577; V -0.261; K -0.69; R -0.604; N -0.598; T -0.719; D -0.656; S -0.617; C -0.634; G -0.384; A -0.664; H -0.355; F -0.285; Q -0.24; E -0.386
E45: L -0.221; N -0.439; K -0.667; P -0.918; R -0.891; T -0.942; S -0.828; H -0.45; M -0.314; V -0.425; F -0.297; G -1.04; Q -0.282; I -0.336; W -0.447; Y -0.395; C -0.548
I47: S -0.279; M 0.101; T -0.051; E 0.259; V -0.097; P -1.04; H -0.46; N -0.529; A 0.061; G -0.259; K -0.198; F -0.23; C -0.567; D -0.107; W -0.176; L 0.162
L41: Q -0.721; E -1.04; Y -0.753; I -0.652; W -0.867; H -0.951; S -0.604; C -0.876; P -1.14; K -0.666; N -0.849; G -0.702; D -0.849; A -0.671; F -0.791; R -0.762; V -0.53
K39: D 0.008; H -0.473; C -0.452; R -0.119; P -0.868; Q 0.05; L -0.274; F -0.455; W -1.03; E -0.075; M -0.211; N -0.045; S -0.148; G -0.084; V -0.395; Y -0.683
R37: Y -0.59; K -0.039; E 0.188; C -0.346; V -0.271; I -0.123; A 0.117; Q 0.073; T 0.205; L -0.085; G 0.01; H -0.129; W -0.418; F -0.764; N 0.001; P -1.13; D -0.27; M -0.058
A53: D -0.961; I -0.709; N -0.474; M -0.33; K -1.12; F -0.64; L -0.747; C -0.728; G -0.946; H -0.741; E -0.622
K36: M -0.047; G -0.219; I 0.199; V 0.052; A 0.084; C -0.166; D 0.247; F -0.149; L 0.034; T 0.155; H -0.036; Y 0.041; W -0.535; N 0.094; R -0.011; P -0.868
K46: I -0.595; T -0.619; A -0.871; W -0.995; C -0.848; D -0.777; E -0.74; Y -0.968; G -0.671; L -0.982; P -0.844; F -0.987; H -0.718; S -0.996; M -0.85; V -0.647
I50: S -0.509; Q -0.007; N -0.323; M 0.013; P -0.617; D -0.425; R -0.01; C -0.59; K -0.228; E 0.248; L -0.161; H -0.005; A -0.287; G -0.555; W -0.437; F -0.034
M40: F -0.404; H -0.119; R -0.372; V -0.665; D 0.111; W -0.503; T -0.05; C -0.191; E 0.354; N -0.022; L 0.011; S 0.023; Y -0.383; K 0.29; Q 0.361; P -0.711; I -0.605
E52: N -0.793; Y -0.598; D -0.438; C -0.515; F -0.546; T -0.397; M -0.396; I -0.278; K -0.577; S -0.785; W -0.605; V -0.404; A -0.462; R -0.735; Q -1.04; P -0.982; H -0.564
R33: L 0.438; Y 0.167; P -0.75; F -0.001; N -0.008; S 0; Q 0.465; K -0.075; H -0.008; T 0.367; W 0.125; E 0.343; G -0.54
L34: A -0.938; V -0.531; H -0.846; W -0.909; M -0.547; S -0.719; P -0.222; C -0.522; Y -0.826; D -0.685; R -0.763; N -0.82; F -0.68; Q -0.638; K -1.29; E -0.891
W38: D -0.696; P -1; G -0.865; C -0.644; K -0.375; L -0.994; S -0.59; N -0.914; M -0.717; Y -0.641; A -0.568; I -0.716; E -1.27; R -0.653; F -0.801; V -0.766; H -0.851; Q -0.068; T -1.05
D43: M -0.079; I -0.272; Y -0.191; E -0.127; C -0.448; G -0.402; S -0.339; L -0.077; H -0.129; F -0.047; P 0.009; V -0.397; K -0.205
